Laboratory results published in patent US20050124794A1, “Cell surface tropomyosin as a target of angiogenesis inhibition” (priority 2002, published 2005).
Each block holds one molecule with its values, some of them ahead of it.

Tests used:
chicken gizzard Tpm [1] = biological target: T1, chicken gizzard Tpm (Gallus gallus, UniProt P19352); experiment: Binding to immobilized Tpm in a 96 well plate (biotin-HKa competition or direct binding)
T1 construct: purchased Sigma; host or cells: chicken gizzard (tissue-derived, as the name says)
T1 sequence (P19352 1-284 isoform P19352-2): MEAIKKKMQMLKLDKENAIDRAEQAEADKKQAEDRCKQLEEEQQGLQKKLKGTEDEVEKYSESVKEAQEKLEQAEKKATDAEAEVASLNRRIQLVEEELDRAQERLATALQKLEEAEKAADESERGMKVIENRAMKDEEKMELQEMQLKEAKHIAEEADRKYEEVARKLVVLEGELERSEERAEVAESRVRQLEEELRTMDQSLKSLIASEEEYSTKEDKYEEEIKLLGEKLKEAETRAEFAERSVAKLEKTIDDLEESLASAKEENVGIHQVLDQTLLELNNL
T1 sequence (P04268 1-284 isoform P04268-2 F73S/I172L/T199L/N203E/L204A partner): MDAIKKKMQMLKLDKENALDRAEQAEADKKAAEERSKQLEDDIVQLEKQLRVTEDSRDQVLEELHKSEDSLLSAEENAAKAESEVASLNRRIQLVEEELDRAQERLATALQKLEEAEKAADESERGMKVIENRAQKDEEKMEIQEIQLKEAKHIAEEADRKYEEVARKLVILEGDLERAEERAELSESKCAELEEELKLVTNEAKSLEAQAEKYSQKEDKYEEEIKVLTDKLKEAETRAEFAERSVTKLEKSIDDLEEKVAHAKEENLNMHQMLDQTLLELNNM
Experimental: Plates are coated at room temperature with chicken gizzard Tpm (Sigma) in Tris buffer-saline (TBS) (200 ng/well). After incubation for 2 hours, wells are washed with TBS, then 1% BSA/TBS/Tween-20 is added to each well and incubate at 37° C. for two hours. HKa (Enzyme Laboratories) that had been previously biotinylated with EZ-Link (Pierce) according to the manufacturers instructions, is added to the plate at a concentration of 10 nM together with ZnCl2 (10 μM) and the appropriate concentration of the protein, domain or peptide competitor. The plates are incubated at room temperature and then washed with TBS/Tween-20. Avidin-HRP is added, incubated for 20 minutes at room temperature, washed with TBS/Tween-20 and the chromogenic substrate is added. The reaction is stopped with sulfuric acid and the plate read at 490 nm.
The IC50 for the displacement of biotinylated-HKa for the peptides shown in Table 5 was determined as follows: 10 nM biotin-HKa is added to a 96 well plate previously coated with 200 ng of chicken gizzard Tpm in the presence of 10 μM ZnCl2. Increasing amounts of the peptides are added to the wells. The remaining biotin-HKa bound to Tpm was detected using avidin-HRP and a chromogenic substrate. A Kd was determined by non-linear regression analysis of the empirical data. The effect on the Matrigel Plug assay was determined as follows: Matrigel (0.5 mL) containing 400 ng/ml of bFGF, 50 μg/ml heparin with or without the peptide (300 μM) or saline buffer are injected in the flanks of a mouse. After five days, the plugs are removed and the plugs scanned.
The N-terminus of the pentapeptide HHPHG has been derivatized (capped) in an attempt to increase the pentapeptides' affinity to Tpm by increasing productive molecular contacts (or interactions). […] The IC50 for the displacement of biotinylated-HKa for the capped peptides shown in the table was determined as follows: 10 nM biotin-HKa was added to a 96 well plate previously coated with 200 ng of chicken gizzard Tpm in the presence of 10 μM ZnCl2. Increasing amounts of the peptides were added to the wells. The remaining biotin-HKa bound to Tpm was detected using avidin-HRP and a chromogenic substrate. A Kd was determined by non-linear regression analysis of the empirical data

hTm3 = hTm3 (Homo sapiens, UniProt P09493); conditions: SPR, MacDonald et al. 2001; read-out: Kd of binding to immobilized hTm3; cited from earlier work
Chain of hTm3 (P09493 1-284 isoform P09493-3): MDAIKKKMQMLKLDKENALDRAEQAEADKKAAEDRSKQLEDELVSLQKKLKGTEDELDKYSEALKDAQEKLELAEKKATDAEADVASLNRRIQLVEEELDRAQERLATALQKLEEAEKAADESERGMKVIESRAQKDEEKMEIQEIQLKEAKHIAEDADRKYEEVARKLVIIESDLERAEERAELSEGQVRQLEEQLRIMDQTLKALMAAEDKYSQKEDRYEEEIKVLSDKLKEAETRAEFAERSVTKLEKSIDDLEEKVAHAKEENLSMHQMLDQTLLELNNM

HUVEC = experiment: EC proliferation assay (growth factor-induced); type: cell-based, human; conditions: bFGF 10 ng/ml; 20 nM HKa, 60 nM HKa domain 5
Experimental: EC proliferation assays. The effect of HKa on ECs in the absence or presence of mAb TM-311 was initially assessed using a proliferation assay, as described in Zhang et al., supra. Relative numbers of cells remaining in each well of a 96 well microplate after incubation for 48 hours in the absence or presence of HKa were determined using the Aqueous® cell proliferation assay (Promega, Madison, Wis.). Results are presented as the percent inhibition of bFGF-induced EC proliferation, which essentially reflects the extent of HKa-induced EC apoptosis. Though bFGF was used as the EC mitogen in most studies of the studies described herein, identical results were obtained using VEGF.

chicken gizzard Tpm [2] = biological target: T1, chicken gizzard Tpm; experiment: Binding of HKa to purified Tpm immobilized in 96 well microplates; conditions: for inhibition of binding of HKa to purified immobilized Tpm (in words): 20 nM biotin-HKa, 10 μM Zn2+
Experimental: To measure the binding of HKa to purified Tpm, 96 well microplates were coated with 20 μg/ml of chicken gizzard Tpm (Sigma), or bovine serum albumin (BSA), as a control. Wells were then blocked by incubation with phosphate buffered saline containing 5% nonfat milk, and incubated with increasing concentrations of HKa (0.01-20 nM) for 2 hours. Specifically-bound HKa was quantitated as described for cell binding assays (van Iwaarden et al., supra, and by assessing the ability of a 100-fold molar excess of unlabeled HKa to compete with biotin-HKa for binding.
In selected experiments, the ability of mAb TM-311 and recombinant HKa D5 to inhibit the binding of biotin-HKa to Tpm was assessed. These studies allowed determination of the Kd for binding of HKa D5 to Tpm using the equation: Kd (D5)=IC50/(1+[HKa]/Kd (HKa)) where IC50 is the concentration of HKa D5 that inhibited HKa binding by 50%, and Kd(HKa) is the Kd for binding of HKa to Tpm.

[3] = competition with 10 nM biotin-HKa
[4] = plate coated with 200 ng chicken gizzard Tpm, 10 μM ZnCl2

Kd relative to that reported previously by SPR (fold better) (chicken gizzard Tpm [1]): 50 fold | affinity relative to HKa or HKa-D5 binding (fold lower) (chicken gizzard Tpm [1]): approximately 1,000 fold | Kd (chicken gizzard Tpm [1]; competition with 10 nM biotin-HKa, 10 μM ZnCl2): ~2000 nM
B2: endostatin: Zn2+-binding, antiangiogenic polypeptide comprised of the NC domain of collagen XVIII (protein, UniProt P39060 1572-1754, looked up)
Endostatin: HSHRDFQPVLHLVALNSPLSGGMRGIRGADFQCFQQARAVGLAGTFRAFLSSRLQDLYSIVRRADRAAVPIVNLKDELLFPSWEALFSGSEGPLKPGARIFSFDGKDVLRHPTWPQKSVWHGSDPNGRRLTESYCETWRTEAPSATGQASSLLGGRLLGQSAASCHHAYIVLCIENSFMTASK
modifications: Endostatin
Kd (hTm3): ~100000 nM

binding to immobilized Tpm / displacement of biotin-HKa (in words) (chicken gizzard Tpm [1]; 10 nM biotin-HKa, 200 ng chicken gizzard Tpm, 10 μM ZnCl2): binds | Kd (chicken gizzard Tpm [1]; [4]): ~2 nM
B3: rabbit HPRG: rabbit Histidine-Proline-Rich Glycoprotein, SEQ ID NO:22 (protein)
chain: LTPTDCKTTKPLAEKALDLINKWRRDGYLFQLLRVADAHLDGAESATVYYLVLDVKETDCSVLSRKHWEDCDPDLTKRPSLDVIGQCKVIATRYSDEYQTLRLNDFNCTTSSVSSALANTKDSPVLFDFIEDTEPFRKSADKALEVYKSESEAYASFRVDRVERVTRVKGGERTNYYVDFSVRNCSRSHFHRHPAFGFCRADLSFDVEASNLENPEDVIISCEVFNFEEHGNISGFRPHLGKTPLGTDGSRDHHHPHKPHKFGCPPPQEGEDFSEGPPLQGGTPPLSPPFRPRCRHRPFGTNETHRFPHHRISVNIIHRPPPHGHHPHGPPPHGHHPHGPPPHGHPPHGPPPRHPPHGPPPHGHPPHGPPPHGHPPHGPPPHGHPPHGPPPHGHPPHGHGFHDHGPCDPPSHKEGPQDLHQHAMGPPPKHPGKRGPGKGHFPFHWRRIGSVYQLPPLQKGEVLPLPEANFPQLLLRNHTHPLKPEIQPFPQVASERCPEEFNGEFAQLSKFFPSTFPK

Continued, molecule first:

B1: H/P domain: Histidine-Proline rich domain of HPRG, responsible for anti-angiogenic activity (protein)
chain: SVNIIHRPPPHGHHPHGPPPHGHHPHGPPPHGHPPHGPPPRHPPHGPPPHGHPPHGPPPHGHPPHGPPPHGHPPHGPPPHGHPPHGHGFHDHGPCDPPSHK
affinity for immobilized Tpm relative to endostatin (fold higher) (chicken gizzard Tpm [1]; [3]): approximately 1,000 fold | Kd (chicken gizzard Tpm [1]; [4]): ~2 nM

B4: HKa D5: Recombinant HKa domain 5, 125 residue D5 domain, SEQ ID NO:26 (protein, listed as Homo sapiens)
chain: VSPPHTSMAPAQDEERDSGKEQGHTRRHDWGHEKQRKHNLGHGHKHERDQGHGHQRGHGLGHGHEQQHGLGHGHKFKLDDDLEHQGGHVLDHGHKHKHGHGHGKHKNKGKKNGKHNGWKTEHLAS
inhibition of bFGF-induced EC proliferation (in words) (HUVEC): inhibition | inhibition of binding of HKa to purified immobilized Tpm (in words) (chicken gizzard Tpm [2]): blocked binding | inhibition of binding of HKa to purified immobilized Tpm (in words) (chicken gizzard Tpm [2]; listed as HKa domain 5): inhibits binding | Kd (chicken gizzard Tpm [2]; from IC50 of competition with biotin-HKa (equation of b366), read-out: estimated Kd of binding to Tpm): ~2.1 nM | affinity for immobilized Tpm relative to endostatin (fold higher) (chicken gizzard Tpm [1]; [3]): approximately 1,000 fold | Kd (chicken gizzard Tpm [1]; [4]): ~1 nM
